In patent US20200181601A1 (INSTITUT PASTEUR, published 2020):

B1: Sac7*6-PhoA chimera (binder 6 fused to the N-terminus of E. coli alkaline phosphatase) (designed binder)
chain: RTPEMPVDGTGSVKVKFVLGGEEKEVDTSKIRHVYRYGKHVTFSYDDNGKLGLGLVKEKDAPKELLDMLARAEREKKLRAQPGVLENRAAQGDITAPGGARRLTGDQTAALRDSLSDKPAKNIILLIGDGMGDSEITAARNYAEGAGGFFKGIDALPLTGQYTHYALNKKTGKPDYVTDSAASATAWSTGVKTYNGALGVDIHEKDHPTILEMAKAAGLATGNVSTAELQGATPAALVAHVTSRKCYGPSATSEKCPGNALEKGGKGSITEQLLNARADVTLGGGAKTFAETATAGEWQGKTLREQAQARGYQLVSDAASLNSVTEANQQKPLLGLFADGNMPVRWLGPKATYHGNIDKPAVTCTPNPQRNDSVPTLAQMTDKAIELLSKNEKGFFLQVEGASIDKQGHAANPCGQIGETVDLDEAVQRALEFAKKEGNTLVIVTADHAHASQIVAPDTKAPGLTQALNTKDGAVMVMSYGNSEEDSQEHTGSQLRIAAYGPHAANVVGLTDQTDLFYTMKAALGLK
notes: also called clone 6-alkalin phosphatase fusion; Sac7*-PhoA
B2: Sac7*33-PhoA chimera (binder 33 fused to the N-terminus of E. coli alkaline phosphatase) (designed binder)
chain: RTPEMPVDGTGSVKVKFTWYGEEKEVDTSKIMSVCRWGKRVAFSYDDNGKIDYGLVDEKDAPKELLDMLARAEREKKLRAQPGVLENRAAQGDITAPGGARRLTGDQTAALRDSLSDKPAKNIILLIGDGMGDSEITAARNYAEGAGGFFKGIDALPLTGQYTHYALNKKTGKPDYVTDSAASATAWSTGVKTYNGALGVDIHEKDHPTILEMAKAAGLATGNVSTAELQGATPAALVAHVTSRKCYGPSATSEKCPGNALEKGGKGSITEQLLNARADVTLGGGAKTFAETATAGEWQGKTLREQAQARGYQLVSDAASLNSVTEANQQKPLLGLFADGNMPVRWLGPKATYHGNIDKPAVTCTPNPQRNDSVPTLAQMTDKAIELLSKNEKGFFLQVEGASIDKQGHAANPCGQIGETVDLDEAVQRALEFAKKEGNTLVIVTADHAHASQIVAPDTKAPGLTQALNTKDGAVMVMSYGNSEEDSQEHTGSQLRIAAYGPHAANVVGLTDQTDLFYTMKAALGLK
B3: Sac7*40-PhoA chimera (binder 40 fused to the N-terminus of E. coli alkaline phosphatase) (designed binder)
chain: RTPEMPVDGTGSVKVKFGEHGEEKEVDTSKIMSVVRFGKWVCFRYDDNGKAGYGAVLEKDAPKELLDMLARAEREKKLRAQPGVLENRAAQGDITAPGGARRLTGDQTAALRDSLSDKPAKNIILLIGDGMGDSEITAARNYAEGAGGFFKGIDALPLTGQYTHYALNKKTGKPDYVTDSAASATAWSTGVKTYNGALGVDIHEKDHPTILEMAKAAGLATGNVSTAELQGATPAALVAHVTSRKCYGPSATSEKCPGNALEKGGKGSITEQLLNARADVTLGGGAKTFAETATAGEWQGKTLREQAQARGYQLVSDAASLNSVTEANQQKPLLGLFADGNMPVRWLGPKATYHGNIDKPAVTCTPNPQRNDSVPTLAQMTDKAIELLSKNEKGFFLQVEGASIDKQGHAANPCGQIGETVDLDEAVQRALEFAKKEGNTLVIVTADHAHASQIVAPDTKAPGLTQALNTKDGAVMVMSYGNSEEDSQEHTGSQLRIAAYGPHAANVVGLTDQTDLFYTMKAALGLK
notes: also called Sac7*-PhoA
B4: wild type Sac7d (recombinant) (other)
chain: VKVKFKYKGEEKEVDTSKIKKVWRVGKMVSFTYDDNGKTGRGAVSEKDAPKELLDMLARAEREKK
notes: also called Sac7d wt; wt Sac7d

Tests used:
[1] = biological target: T1, PulD-N, soluble monomeric fragment corresponding to the N-terminal region of PulD from Klebsiella oxytoca (Klebsiella oxytoca, UniProt P15644 28-264)
T1 sequence: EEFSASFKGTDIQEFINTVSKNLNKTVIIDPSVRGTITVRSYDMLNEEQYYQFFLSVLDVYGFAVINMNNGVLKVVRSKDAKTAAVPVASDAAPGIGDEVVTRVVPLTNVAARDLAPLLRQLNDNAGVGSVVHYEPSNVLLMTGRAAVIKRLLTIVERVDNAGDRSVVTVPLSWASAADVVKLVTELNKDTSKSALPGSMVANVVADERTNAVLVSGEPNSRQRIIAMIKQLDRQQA

[2] = biological target: T2, full-length PulD, monomeric (Klebsiella oxytoca, UniProt P15644 28-660); experiment: cell-based or functional assay
T2 sequence: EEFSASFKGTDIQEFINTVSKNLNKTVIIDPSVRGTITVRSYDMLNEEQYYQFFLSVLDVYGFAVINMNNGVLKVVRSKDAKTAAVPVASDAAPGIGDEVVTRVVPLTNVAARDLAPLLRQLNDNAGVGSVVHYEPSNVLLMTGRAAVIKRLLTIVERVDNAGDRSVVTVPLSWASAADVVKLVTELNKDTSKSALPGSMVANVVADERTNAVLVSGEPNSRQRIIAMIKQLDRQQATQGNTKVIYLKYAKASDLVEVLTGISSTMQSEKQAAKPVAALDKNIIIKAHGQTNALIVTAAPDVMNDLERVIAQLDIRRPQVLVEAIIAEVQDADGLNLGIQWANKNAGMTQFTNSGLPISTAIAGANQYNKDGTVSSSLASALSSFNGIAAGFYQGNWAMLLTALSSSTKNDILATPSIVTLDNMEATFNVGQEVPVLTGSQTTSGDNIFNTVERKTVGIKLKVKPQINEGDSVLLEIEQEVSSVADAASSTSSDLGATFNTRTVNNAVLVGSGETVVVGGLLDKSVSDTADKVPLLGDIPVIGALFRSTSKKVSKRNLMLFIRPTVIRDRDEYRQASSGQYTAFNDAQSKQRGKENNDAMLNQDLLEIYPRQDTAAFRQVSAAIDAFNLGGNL

[3] = biological target: T3, PulD-CS, PulD variant lacking the N-domain (Klebsiella oxytoca, UniProt P15644 28-660); experiment: far-Western immunoblot
T3 construct: domain: PulD variant lacking the N-domain

[4] = biological target: T1, PulD-N, soluble monomeric fragment …; experiment: SPR, immobilized biotinylated PulD-N

Binder	ratio signal/background [1]	inhibition of pullulanase secretion, strain PAP5198 pCHAP231, IPTG induced [2]	binding result [3]	binding result [4]
B1	> 10	> 90%	no binding	
B2	> 10	> 90%		
B3	> 10	> 90%	no binding	
B4				no binding
